Assay [1] deals with EPO receptor (Sinobiological, 10707-H08H) (UniProt P19235). As to the kind of experiment: SPR, Biacore 8K, 25 C. For orientation: SPR reads the build-up and loss of mass on a sensor chip optically.
Assay [2] concerns the target T1, EPO receptor on TF-1 cells (human, UniProt P19235 25-508).
T1 sequence (looked up): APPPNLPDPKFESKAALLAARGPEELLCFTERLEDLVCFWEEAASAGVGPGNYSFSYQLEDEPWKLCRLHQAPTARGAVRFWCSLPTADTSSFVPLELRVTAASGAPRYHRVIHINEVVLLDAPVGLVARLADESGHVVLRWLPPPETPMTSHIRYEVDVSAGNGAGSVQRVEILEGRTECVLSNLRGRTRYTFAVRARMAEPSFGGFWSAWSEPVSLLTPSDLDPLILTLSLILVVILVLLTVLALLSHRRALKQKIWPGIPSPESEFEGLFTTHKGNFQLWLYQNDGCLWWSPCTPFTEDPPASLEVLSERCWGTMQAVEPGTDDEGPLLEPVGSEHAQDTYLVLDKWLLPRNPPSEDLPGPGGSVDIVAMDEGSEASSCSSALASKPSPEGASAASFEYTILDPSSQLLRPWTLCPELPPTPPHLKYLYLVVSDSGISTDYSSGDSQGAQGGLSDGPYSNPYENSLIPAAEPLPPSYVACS
As to the kind of experiment: cell-based or functional assay.

This note sets out measurements from patent US20230331798A1 (JECHO LABORATORIES, published 2023).

The Kd is the constant that tells how readily two partners part at equilibrium. Low values mean tighter binding, high ones weaker binding.

“Darbepoetin (Darbe, lot #1078765A) (ligand)” registered a Kd in assay [1] of 8.35 nM. In assay [2], this substance returned an EC50 (ng/ml), TF-1 cell proliferation (MTS, absorbance at 490 nM) of 11.4 ng/mL.
